The values that follow come from patent US20260191981A1 (ARROWHEAD PHARMACEUTICALS, published 2026).

The target of assay [1] is T1, human transferrin receptor 1 (hTfR1) (human, UniProt P02786 89-760, limits assumed).
T1 construct: The selections used the biotinylated ECD domain of hTfR1
As to the kind of experiment: competition ELISA, Fab. A general note: In an ELISA, binding on a coated surface is turned into a signal by an enzyme label.

The target of assay [2] is T2, cynomolgus monkey transferrin receptor 1 (cTfR1) (cynomolgus monkey, UniProt H9EXL1 89-760 (rhesus entry)).
T2 construct: The ELISA against cTfR1 is not described in the text
The assay can be described thus: competition ELISA, Fab.

Assay [3] concerns the target T1, human transferrin receptor 1 (hTfR1). The assay can be described thus: competition phage ELISA (phage-displayed Fab).
In assay [4] the target is T2, cynomolgus monkey transferrin receptor …. As to the kind of experiment: competition phage ELISA (phage-displayed Fab).
Assay [5] has as its target T3, his-tagged hTfR1 (Acro Biosystems p/n CD1-H5243) (human, UniProt P02786 89-760).
T3 construct: Bought reagent of the SPR assay
As to the kind of experiment: SPR, Biacore X100, His-tagged TfR1 captured by anti-His. As for the experimental part: Samples were analyzed via Surface Plasmon Resonance (SPR) to determine kinetics against human transferrin receptor 1 (hTfR1). Briefly, a Biacore X100 (Cytiva) was used for SPR measurements using a CM5 chip (carboxymethylated dextran surface, Cytiva p/n BR100399) with anti-histidine antibody irreversibly immobilized on the surface of both flow cells for the reversible capture of his-tagged hTfR1 (Acro Biosystems p/n CD1-H5243). The anti-histidine antibody was irreversibly immobilized via amine coupling using Cytiva provided Amine Coupling Kit (p/n BR100050) and His Capture Kit (p/n 28995056). […] Sample diluent was prepared in house and is composed of 10 mM HEPES buffer pH 7.4, 150 mM NaCl, 3 mM EDTA, and 0.05% Tween 20. Cytiva caps and vials compatible for Biacore X100 are used for sample analysis. Each analysis cycle consists of a capture step followed by sample or blank injection, and finally a regeneration step that removes any sample and hTfR1 on the sensor surface. The capture step was performed at 5 μL/min with a contact time of 24 seconds over the active flow cell only, followed by a fluidics wash with 0.1% Tween 20. Generally, 2 μg/mL hTfR1 is a sufficient concentration to observe adequate hTfR1 captured consistently between cycles. Sample or buffer was injected at 30 μL/min with a contact time of 180 seconds and a dissociation time of 180 seconds followed by a fluidics wash with 0.1% Tween 20. A 10 mM glycine solution at pH 1.5 (provided in His Capture Kit) was used for regeneration at 30 μL/min with a 60 second contact time. A cycle was performed for each sample concentration analyzed along with one cycle repeating one concentration for variability evaluation and 2-3 buffer cycles. Results were analyzed in Biacore Evaluation Software. Buffer cycles were averaged and subtracted from sample injections prior to kinetic fitting. A monovalent or kinetic fit was specified as relevant for the sample analyzed. Accuracy of the fit was evaluated and data points are excluded as applicable. […]
A general note: Surface plasmon resonance follows binding to a sensor surface in real time, without labels.

The target in assay [6] is T4, his-tagged cTfR1 (Acro Biosystems p/n TFR-C524a) (cynomolgus monkey, UniProt H9EXL1 89-760 (rhesus entry)).
T4 construct: Bought reagent of the SPR assay
The assay is described as above. As for the experimental part: Samples were analyzed via Surface Plasmon Resonance (SPR) to determine kinetics against cynomolgus monkey transferrin receptor 1 (cTfR1). Briefly, a Biacore X100 (Cytiva) was used for SPR measurements using a CM5 chip (carboxymethylated dextran surface, Cytiva p/n BR100399) with anti-histidine antibody irreversibly immobilized on the surface of both flow cells for the reversible capture of his-tagged cTfR1 (Acro Biosystems p/n TFR-C524a). The anti-histidine antibody was irreversibly immobilized via amine coupling using Cytiva provided Amine Coupling Kit (p/n BR100050) and His Capture Kit (p/n 28995056). […] Sample diluent was prepared in house and is composed of 10 mM HEPES buffer pH 7.4, 150 mM NaCl, 3 mM EDTA, and 0.05% Tween 20. Cytiva caps and vials compatible for Biacore X₁₀₀ were used for sample analysis. Each analysis cycle consists of a capture step followed by sample or blank injection, and finally a regeneration step that removes any sample and cTfR1 on the sensor surface. The capture step was performed at 5 μL/min with a contact time of 24 seconds over the active flow cell only, followed by a fluidics wash with 0.1% Tween 20. Generally, 2 μg/mL hTfR1 was a sufficient concentration to observe adequate hTfR1 captured consistently between cycles. Sample or buffer was injected at 30 μL/min with a contact time of 180 seconds and dissociation time of 180 seconds followed by a fluidics wash with 0.1% Tween 20. A 10 mM glycine solution at pH 1.5 (provided in His Capture Kit) was used for regeneration at 30 μL/min with a 60 second contact time. A cycle was performed for each sample concentration analyzed along with one cycle repeating one concentration for variability evaluation and 2-3 buffer cycles. Results were analyzed in Biacore Evaluation Software. Buffer cycles were averaged and subtracted from sample injections prior to kinetic fitting. A monovalent or kinetic fit was specified as relevant for the sample analyzed. Accuracy of the fit is evaluated and data points are excluded as applicable.

T4 sequence (chain, as listed by the source): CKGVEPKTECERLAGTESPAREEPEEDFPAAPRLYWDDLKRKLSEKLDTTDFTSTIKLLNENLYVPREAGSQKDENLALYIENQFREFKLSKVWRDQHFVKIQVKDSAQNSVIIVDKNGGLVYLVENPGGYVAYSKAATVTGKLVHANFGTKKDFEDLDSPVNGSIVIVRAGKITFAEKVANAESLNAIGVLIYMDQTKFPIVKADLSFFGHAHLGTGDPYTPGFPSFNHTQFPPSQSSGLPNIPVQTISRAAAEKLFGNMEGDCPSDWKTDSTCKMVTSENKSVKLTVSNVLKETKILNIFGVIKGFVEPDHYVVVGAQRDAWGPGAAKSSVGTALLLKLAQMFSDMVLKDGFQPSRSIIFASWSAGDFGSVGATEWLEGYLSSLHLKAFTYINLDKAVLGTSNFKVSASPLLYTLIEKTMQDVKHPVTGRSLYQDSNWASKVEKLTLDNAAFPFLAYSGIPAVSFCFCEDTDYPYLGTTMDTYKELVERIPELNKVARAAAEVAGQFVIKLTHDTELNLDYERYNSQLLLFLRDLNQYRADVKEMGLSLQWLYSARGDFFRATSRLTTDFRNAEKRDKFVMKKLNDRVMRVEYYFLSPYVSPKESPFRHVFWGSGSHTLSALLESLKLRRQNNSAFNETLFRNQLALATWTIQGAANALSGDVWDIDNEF
T2 sequence (chain, as listed by the source): as above
T3 sequence (P02786 89-760 limits assumed): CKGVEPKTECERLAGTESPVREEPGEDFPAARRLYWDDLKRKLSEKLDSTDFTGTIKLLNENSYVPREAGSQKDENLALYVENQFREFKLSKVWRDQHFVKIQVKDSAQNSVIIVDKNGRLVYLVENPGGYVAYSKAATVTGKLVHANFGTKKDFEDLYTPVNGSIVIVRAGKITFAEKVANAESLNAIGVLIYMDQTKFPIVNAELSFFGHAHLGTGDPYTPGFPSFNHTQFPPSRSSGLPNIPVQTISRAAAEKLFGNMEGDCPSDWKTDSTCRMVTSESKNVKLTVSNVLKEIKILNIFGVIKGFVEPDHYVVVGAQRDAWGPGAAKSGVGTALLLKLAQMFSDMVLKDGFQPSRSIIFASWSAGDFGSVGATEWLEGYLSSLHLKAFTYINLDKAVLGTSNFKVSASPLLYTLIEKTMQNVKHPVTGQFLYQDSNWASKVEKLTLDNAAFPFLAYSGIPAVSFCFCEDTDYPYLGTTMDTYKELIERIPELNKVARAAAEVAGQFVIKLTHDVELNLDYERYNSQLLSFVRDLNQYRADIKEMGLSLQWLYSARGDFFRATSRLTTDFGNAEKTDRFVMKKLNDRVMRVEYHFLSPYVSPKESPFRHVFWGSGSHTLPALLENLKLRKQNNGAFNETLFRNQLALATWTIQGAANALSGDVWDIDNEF
T1 sequence (P02786 89-760 limits assumed): as above

B1: Fab0071 (Fab, V domains shown)
VH: EVQLVESGGGLVQPGGSLRLSCATSGYTFNSYWMHWVRQAPGKGLEWVAEINPTNGRTNYIEKFKSRITLSVDKSKSTVYLQMNSLRAEDTAVYYCARGTRAYHYWGQGTLVTVSS
VL: DIQLTQSPSSLSASVGDRVTITCRASDGLYSNLAWYQQKPGKAPKLLIYDARNLASGVPSRFSGSGSGTDYTLTISSLQPEDFATYYCQHFWGTPLTFGQGTKVEIKR
For B1, the Kd (in general, the concentration at which binding is half-saturated) in assay [1] was 0.43 nM; in assay [2] it was 53.3 nM; in assay [3] it was 0.45 nM; in assay [4], 0.74 nM; in assay [5] it was 0.553 nM; in assay [6], 8.13 nM. Further, the koff (as a rule, a measure of how fast the partners let go of each other) in assay [5] came out at 0.000865 s⁻¹; in assay [6], 0.0112 s⁻¹. For the same molecule, the kon (commonly the second-order rate constant of association) was 1.56e+06 M⁻¹ s⁻¹ in assay [5] and 1.38e+06 M⁻¹ s⁻¹ in assay [6].

B2: Fab0002 (Fab, V domains shown)
VH: EVQLVQSGAEVKKPGASVKVSCKASGYTFTSYWMHWVRQAPGQRLEWIGEINPTNGRTNYIEKFKSRATLTVDKSASTAYMELSSLRSEDTAVYYCARGTRAYHYWGQGTMVTVSS
VL: DIQMTQSPSSLSASVGDRVTITCRASDNLYSNLAWYQQKPGKSPKLLVYDATNLADGVPSRFSGSGSGTDYTLTISSLQPEDFATYYCQHFWGTPLTFGQGTKVEIKR
Consider B2, for which the dissociation constant Kd worked out at 7.28 nM in assay [1]; 33.8 nM in assay [2]; 2.8 nM in assay [3]; 0.96 nM in assay [4]; 7.68 nM in assay [5]; 25.2 nM in assay [6]. The koff in assay [5] was determined as 0.00499 s⁻¹; in assay [6], 0.0155 s⁻¹. Besides, the kon in assay [5] came to 649000 M⁻¹ s⁻¹; in assay [6] it was 614000 M⁻¹ s⁻¹.

B3: Fab0072 (Fab, V domains shown)
VH: EVQLVESGGGLVQPGGSLRLSCATSGYTFNSYWMHWVRQAPGKGLEWVAEINPTNGRFNYIEKFKSRITLSVDKSKSTVYLQMNSLRAEDTAVYYCARGTRAYHYWGQGTLVTVSS
VL: DIQLTQSPSSLSASVGDRVTITCRASDNLYRNLAWYQQKPGKAPKLLIYDARNLASGVPSRFSGSGSGTDYTLTISSLQPEDFATYYCQHFWGTPLTFGQGTKVEIKR
With B3, the Kd came out at 0.19 nM in assay [1]; 11.9 nM in assay [2]; 0.19 nM in assay [3]; 1.18 nM in assay [4]; 0.331 nM in assay [5]; 3.88 nM in assay [6]. Further, the figures for the koff in assay [5] and in assay [6] were 0.000614 s⁻¹ and 0.0108 s⁻¹, respectively. Besides, the kon in assay [5] was 1.86e+06 M⁻¹ s⁻¹; in assay [6], 2.78e+06 M⁻¹ s⁻¹.

B4: Fab0073 (Fab, V domains shown)
VH: EVQLVESGGGLVQPGGSLRLSCATSGYTFKSYWMHWVRQAPGKGLEWVAEINPTNGRTNYIEKFKSRITLSVDKSKSTVYLQMNSLRAEDTAVYYCARGTRAYHYWGQGTLVTVSS
VL: DIQLTQSPSSLSASVGDRVTITCRASDNLYRNLAWYQQKPGKAPKLLIYDATKLASGVPSRFSGSGSGTDYTLTISSLQPEDFATYYCQHFWGTPLTFGQGTKVEIKR
Consider B4, for which the Kd was 0.32 nM in assay [1]; 8.68 nM in assay [2]; 0.29 nM in assay [3]; 1.95 nM in assay [4]; 0.351 nM in assay [5]; 2.85 nM in assay [6]. Also, the koff in assay [5] was determined as 0.00065 s⁻¹; in assay [6] it was 0.00677 s⁻¹. The values for the kon in assay [5] and in assay [6] were 1.85e+06 M⁻¹ s⁻¹ and 2.38e+06 M⁻¹ s⁻¹, respectively.

B5: Fab0074 (Fab, V domains shown)
VH: EVQLVESGGGLVQPGGSLRLSCATSGYTFKSYWMHWVRQAPGKGLEWVAEINPTNGRTNYIEKFKSRITLSVDKSKSTVYLQMNSLRAEDTAVYYCARGTRAYHYWGQGTLVTVSS
VL: DIQLTQSPSSLSASVGDRVTITCRASDGLYSNLAWYQQKPGKAPKLLIYDAKNLASGVPSRFSGSGSGTDYTLTISSLQPEDFATYYCQHFWGTPLTFGQGTKVEIKR
Take B5: the Kd in assay [1] was found to be 0.46 nM; in assay [2] it was 17.5 nM; in assay [3] it was 0.46 nM; in assay [4], 2.14 nM; in assay [5], 0.471 nM; in assay [6], 4.31 nM. Also, the figures for the koff in assay [5] and in assay [6] were 0.000782 s⁻¹ and 0.0105 s⁻¹, respectively. Moreover, the kon in assay [5] amounted to 1.66e+06 M⁻¹ s⁻¹; in assay [6], 2.44e+06 M⁻¹ s⁻¹.
